# According to publication PMC9405973, “Altered Conformational Landscape upon Sensing Guanine Nucleotides in a Disease Mutant of Elongation Factor-like 1 (EFL1) GTPase” (Biomolecules, 2022):
# Several values for one entry are separate records, joined by “and”; a condition that tells them apart may be missing. Equal values may be shown once.
# T1: S. cerevisiae Efl1 R1086Q (S. cerevisiae, UniProt P53893 1-1110, R1086Q)
# T1 construct: Elongation Factor-like 1 (Efl1) GTPase of S. cerevisiae with the mutation R1086Q, equivalent to human EFL1 R1095Q; also called mutant Efl1; mutant R1086Q; source: recombinantly expressed in S. cerevisiae, purified
# T1 sequence (looked up): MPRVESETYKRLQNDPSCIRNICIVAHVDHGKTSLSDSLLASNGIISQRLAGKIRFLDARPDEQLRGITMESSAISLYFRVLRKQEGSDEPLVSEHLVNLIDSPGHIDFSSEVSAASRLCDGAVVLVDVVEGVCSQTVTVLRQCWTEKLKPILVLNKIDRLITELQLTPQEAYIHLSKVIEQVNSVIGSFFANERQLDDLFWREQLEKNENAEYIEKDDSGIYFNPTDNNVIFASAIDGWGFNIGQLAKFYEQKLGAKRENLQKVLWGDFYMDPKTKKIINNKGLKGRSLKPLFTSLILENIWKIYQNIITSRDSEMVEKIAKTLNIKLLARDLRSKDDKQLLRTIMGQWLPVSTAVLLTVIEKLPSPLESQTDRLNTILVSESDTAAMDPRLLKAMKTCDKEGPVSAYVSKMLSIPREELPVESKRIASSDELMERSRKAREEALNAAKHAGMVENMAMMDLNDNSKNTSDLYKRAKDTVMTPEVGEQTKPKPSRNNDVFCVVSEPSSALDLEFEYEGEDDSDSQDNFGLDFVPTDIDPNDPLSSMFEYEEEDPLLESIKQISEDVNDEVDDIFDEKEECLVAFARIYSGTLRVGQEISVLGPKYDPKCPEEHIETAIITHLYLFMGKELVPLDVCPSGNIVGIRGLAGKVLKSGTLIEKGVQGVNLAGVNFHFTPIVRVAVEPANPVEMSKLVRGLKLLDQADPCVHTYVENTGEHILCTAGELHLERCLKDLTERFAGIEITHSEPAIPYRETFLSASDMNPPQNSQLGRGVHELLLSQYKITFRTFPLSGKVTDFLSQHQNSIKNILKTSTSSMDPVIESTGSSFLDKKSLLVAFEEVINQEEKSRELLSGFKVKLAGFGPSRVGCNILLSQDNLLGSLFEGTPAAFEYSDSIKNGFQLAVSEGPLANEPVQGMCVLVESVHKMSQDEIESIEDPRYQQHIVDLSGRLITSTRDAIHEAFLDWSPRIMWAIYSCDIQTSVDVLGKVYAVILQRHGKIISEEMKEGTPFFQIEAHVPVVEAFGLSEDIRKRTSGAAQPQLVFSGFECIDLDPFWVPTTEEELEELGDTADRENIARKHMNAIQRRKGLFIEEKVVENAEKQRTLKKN
# Assays:
# [1] = molecular target: T1, S. cerevisiae Efl1 R1086Q; assay: ITC; 25 °C; GTPase in the cell (30-50 µM), Sdo1 as ligand; 50 mM Tris-HCl pH 8.0, 150 mM NaCl, 100 µM DTT, 5% glycerol; one-binding-site model; conditions: both partners purified
# [2] = molecular target: T1, S. cerevisiae Efl1 R1086Q; assay: ITC; coupled equilibria at 30 °C with MgGDP (5 mM MgCl2); heterotropic cooperativity calculated from the titrations of Efl1 R1086Q and of Efl1 R1086Q•Sdo1; conditions: both partners purified
# [3] = tested on: wild-type Efl1; conditions: cited from earlier work
# [4] = molecular target: T2, Efl1 R1086Q (Saccharomyces cerevisiae, UniProt P53893, R1086Q); assay: Isothermal titration calorimetry (ITC): binding of guanine nucleotides or Sdo1 to Efl1 R1086Q
# T2 construct: made in house; host or cells: Saccharomyces cerevisiae
# Experimental: All calorimetric measurements were carried out using MicroCal^TM iTC200 System (GE Healthcare, Northampton, MA, USA) in a temperature range of 25–35 °C. Experiments were performed in a buffer consisting of 50 mM Tris-HCl (pH 8.0), 150 mM NaCl, 100 µM DTT, and 5% glycerol. In the titrations with Mg^2+-bound nucleotides, both the ligand and protein solutions contained 5 mM MgCl2. In the case of titrations with Mg^2+-free nucleotide, both the ligand and protein solutions were supplemented with 2 mM EDTA to sequester any residual trace of metal ions in solution. Protein samples and ligands were prepared in the exact same buffer prior to each titration. Protein concentration in the cell comprised 30–50 µM GTPase, while the ligand concentration in the syringe was 2–3 mM for GTP, MgGTP, GDP, and MgGDP. To ensure measuring the interaction of the complex Efl1 R1086Q•Sdo1 with the nucleotide, an eight-fold concentration excess of Sdo1 was used compared with that of the enzyme. […] The titration schedule consisted of 15–20 consecutive injections of the ligand with 5 min intervals between injections and a stirring rate of 700 rpm. The dilution heat of the ligand was obtained by adding the ligand to a buffer solution under identical conditions and with the same injection schedule used for the protein sample. All samples were degassed for 10 min prior to the experiment.
# The binding isotherms obtained for the isolated GTPase in the presence of Mg(II) were analysed using a ternary model in which the protein can bind to the free nucleotide (G(D)TP) or that bound to one magnesium ion (MgG(D)TP); additionally, GTP may also exist in the form of Mg2GTP, which is not recognised by the protein. The derivation of this coupled-equilibria model can be reviewed in [6, 31]. The binding constant (Kb), the enthalpy change (∆Hb), and the stoichiometry (n) were obtained with the non-linear routines implemented in Origin 5.0 (OriginLab, Co., Northampton, MA, USA) using a one-binding-site model as described in [32, 33]. The heterotropic cooperativity for the binding of guanine nucleotides and Sdo1 to Efl1 R1086Q were calculated as previously described in [6, 32]. The cooperative effects of Mg(II) on the binding of guanine nucleotides to Efl1 R1086Q alone and bound to Sdo1 were calculated as follows:κ = KE-MG/KE-G κ = KES-MG/KES-G Δh = ΔHE-MG − ΔHE-G Δh = ΔHES-MG − ΔHES-G where subscripts E-MG and E-G stand for the association of the metal-bound and metal-free guanine nucleotide with mutant Efl1, respectively. Corresponding expressions applied to the heterotropic cooperativity of the binding of nucleotides to the preformed complex, Efl1•Sdo1 (ES).
# The impact of Sdo1 on the binding of Efl1 R1086Q to guanine nucleotides in the presence of magnesium ions is contained in KES-MG and ΔHES-MG relative to the KE-S and ΔHE-S values; analogous ratios report the effects in the absence of Mg(II):κ = KES-MG/KE-S κ = KES-G/KE-G Δh = ΔHES-MG − ΔHE-S Δh = ΔHES-G − ΔHE-G
# The corresponding cooperative entropy change was calculated as:TΔs = Δh − Δg = Δh + RTlnκ
# The detailed methodology and equations to compute the changes in the accessible surface area (∆ASA) of the GTPase upon binding to nucleotides and the ∆S energetic-based parameters are reported in [6]. Briefly, the water-accessible areas (ASAs) were computed using programme NACCESS, while the changes in accessible surface area (ΔASA) upon the formation of each GTPase–nucleotide complex were estimated considering the difference between the complex and the sum of the free interacting partners. The calculated polar (ΔASAp) and apolar (ΔASAap) area changes were subsequently used to estimate the free molecular partners. […]
# [5] = molecular target: T1, S. cerevisiae Efl1 R1086Q; assay: ITC; 30 °C; GTPase in the cell (30-50 µM), Sdo1 as ligand; 50 mM Tris-HCl pH 8.0, 150 mM NaCl, 100 µM DTT, 5% glycerol; one-binding-site model; conditions: both partners purified
# [6] = molecular target: T1, S. cerevisiae Efl1 R1086Q; assay: ITC; 35 °C; GTPase in the cell (30-50 µM), Sdo1 as ligand; 50 mM Tris-HCl pH 8.0, 150 mM NaCl, 100 µM DTT, 5% glycerol; one-binding-site model; conditions: both partners purified
molecule,measurement,setting,value
"Yeast SBDS (Sdo1) (natural protein, S. cerevisiae, UniProt Q07953 1-250, looked up, Sdo1, the yeast orthologue of SBDS; also called yeast Shwachman-Bodian-Diamond syndrome protein; source: E. coli C41, purified) MPINQPSGQIKLTNVSLVRLKKARKRFEVACYQNKVQDYRKGIEKDLDEVLQIHQVFMNVSKGLVANKEDLQKCFGTTNVDDVIEEIMHKGEIQLSEKERQLMLNKVNNEMLTIVSAKCINPVSKKRYPPTMIHKALQELKFSPVINKPAKLQALEAIKLLVSKQIIPIVRAKMKVKVAISEPSRQPELIEKISKLIASSPGESTKPELDPWTCTGLIDPVNYRDLMTLCDKKGTVQVLDMAVIDNTTHN",Ka,[1],256000 ± 47000 M⁻¹
same,Kd,[1],3.9 ± 0.7 µM
same,dH,[1],-4.3 ± 0.1 kcal/mol
same,fold decrease of the interaction with MgGDP against no nucleotide,[2],3 fold
same,-TΔSb,"[3]; ligand Sdo1, 30 °C",4.4 kcal/mol
same,Kd,"[3]; ligand Sdo1, 30 °C",300 nM
same,ΔGb,"[3]; ligand Sdo1, 30 °C",-9.0 kcal/mol
same,ΔHb,"[3]; ligand Sdo1, 30 °C",-13.4 ± 0.4 kcal/mol
same,ΔCpb,[3]; ligand Sdo1,−860 cal mol^−1 K^−1 and −860 ± 31 cal mol^−1 K^−1
same,-TΔSb,"[4]; ligand Sdo1, 25 °C",-3.1 kcal/mol
same,ΔGb,"[4]; ligand Sdo1, 25 °C",-7.4 kcal/mol
same,-TΔSb,"[4]; ligand Sdo1, 30 °C",-1.3 kcal/mol
same,ΔGb,"[4]; ligand Sdo1, 30 °C",-7.6 kcal/mol
same,Kd,"[4]; ligand Sdo1, 30 °C, read-out: Kd",3000 nM
same,-TΔSb,"[4]; ligand Sdo1, 35 °C",0.6 kcal/mol
same,ΔGb,"[4]; ligand Sdo1, 35 °C",-8.1 kcal/mol
same,ΔCpb,"[4]; ligand Sdo1, from ΔHb at 25–35 °C",−440 cal mol^−1 K^−1 and −440 ± 23 cal mol^−1 K^−1
same,Ka,[5],288000 ± 56000 M⁻¹
same,Kd,[5],3.4 ± 0.6 µM
same,dH,[5],-6.3 ± 0.2 kcal/mol
same,Ka,[6],543000 ± 76000 M⁻¹
same,Kd,[6],1800 ± 200 nM
same,dH,[6],-8.7 ± 0.1 kcal/mol
